# From US20150266968A1 (COMPLIX, published 2015)
# B1: Alphabody AB1_A2aF_hiKR3-V5 (designed binder)
# chain: MSIQQIQKQFKRIQKQIKRIEKQIKRMTGGSGGSGGMSIEEITKQIAAIQLRIVGDQVQIYAMTGGSGGGSGGGSGGGSGGSIEEIKKSIRAIQKEIKKIQKKIKKMTPHHHHHHHHHHGKPIPNPLLGLDST
# B2: Alphabody AB1_pan_hiKR3-V5 (designed binder)
# chain: MSIEEIQKQFKRIQKQIKRIAKQIKRMTGGSGGSGGMSIEEIAAQIAAIQLRIIGDQFNIYYMTGSGGGGSGGSIEEIKKSIRAIQKEIKKIQKKIKKMTPHHHHHHHHHHGKPIPNPLLGLDST
# notes: captured on the plate by anti-V5 antibody in the ELISA
# B3: Alphabody MB23_hiR-V5 (designed binder)
# chain: MSIEQIQKEITTIQEVIAAIQKYIYTMTGGSGGSGGMSIQQIQAAIRRIQRAIRRIQRAIRRMTGSGGGGSGMSIEEIQKQIAAIQEQIVAIYKQIMAMASHHHHHHGKPIPNPLLGLDST
# notes: Cationized Alphabody directed against IL-23, with His-tag and V5 tag; Used as control in the BCL-2 family ELISA; also called cationized MB23; control Alphabody MB23-hiR-V5
# Experiments:
# [1] = molecular target: T1, GST-tagged recombinant human MCL-1 (residues 172 to 327) (human, UniProt Q07820 172-327); assay: ELISA: Alphabody (500 nM) captured by immobilized anti-V5 antibody, five-fold dilutions of GST-MCL-1, detection with anti-GST-HRP, OD read at 492 nm and 630 nm
# T1 construct: Produced in E. coli as an N-terminal GST fusion and purified using the GST-tag; also called recombinant MCL-1; GST-MCL-1; not shown: N-terminal GST tag and any linker or cleavage site between GST and MCL-1
# T1 sequence (Q07820 172-327 limits assumed): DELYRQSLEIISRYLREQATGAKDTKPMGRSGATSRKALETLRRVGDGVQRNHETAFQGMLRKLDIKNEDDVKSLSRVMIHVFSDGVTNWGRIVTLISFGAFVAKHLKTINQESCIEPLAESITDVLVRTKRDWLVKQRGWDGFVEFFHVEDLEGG
# [2] = molecular target: T2, GST-tagged recombinant human BCL-XL with a C terminal deletion of 24 amino acids (human, UniProt Q07817 1-209); assay: ELISA: Alphabody (500 nM) captured by immobilized anti-V5 antibody, five-fold dilutions of GST-BCL-XL, detection with anti-GST-HRP, OD read at 492 nm and 630 nm
# T2 construct: domain: BCL-XL with a C terminal deletion of 24 amino acids; Produced in E. coli as an N-terminal GST fusion; also called GST-BCL-XL; not shown: Glutathione S Transferase (GST) tag at the N-terminus
# T2 sequence (Q07817 1-209, stated change not applied): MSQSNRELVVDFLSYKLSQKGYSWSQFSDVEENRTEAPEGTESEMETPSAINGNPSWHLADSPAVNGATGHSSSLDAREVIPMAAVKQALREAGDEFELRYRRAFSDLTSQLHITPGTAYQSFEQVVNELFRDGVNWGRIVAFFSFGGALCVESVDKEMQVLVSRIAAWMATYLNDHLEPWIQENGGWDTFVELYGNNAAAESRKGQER
# Protocol: (§1) FIG. 13: Binding of recombinant BCL-2 family proteins to Alphabody AB1_pan_hiKR3-V5. Alphabody (500 nM) was captured by immobilized anti-V5 antibody (5 microg/ml) to a microtiterplate. Binding of five-fold dilutions of Glutathione S transferase (GST)-tagged recombinant BCL-2 family proteins MCL-1, BCL-XL and BCL-2a was detected using a anti-GST antibody conjugated to Horse Radish Peroxidase. Plates were read at 492 nm and 630 nm.
# (§2) Maxisorp Nunc plates were coated with 100 microl anti-V5 antibody (5 microg/ml) in carbonate buffer pH 9.6 overnight at 4° C. The next day, plates were washed 3 times with Tris Buffered Saline containing 0.05% Tween 20 (TBST) and blocked with TBS containing 0.1% BSA and 0.5% gelatin for 2 h at 37° C. After washing plates 5 times with TBST, 500 nM AB1_pan_hiKR3-V5 Alphabody was added to the plates for 2 h at RT while shaking. Plates were washed 10 times with TBST and five-fold dilutions of Glutathione S transferase (GST) tagged recombinant BCL-2 family proteins (MCL-1, BCL-XL and BCL-2a) were added and further incubated for 2 h at RT while shaking. Binding of GST-tagged recombinant BCL-2 family proteins was detected using an anti-GST antibody conjugated to Horse Radish Peroxidase. […] Signals indicative for specific binding of AB1_pan_hiKR3-V5 to the particular BCL-2 family recombinant protein were read at 492 nm and 630 nm.
# [3] = molecular target: T1, GST-tagged recombinant human MCL-1 …; assay: ELISA: Alphabody (500 nM) captured by immobilized anti-V5 antibody, five-fold dilutions of GST-tagged recombinant protein, detection with anti-GST-HRP, OD read at 492 nm and 630 nm
# Protocol: as §1, §2
# [4] = molecular target: T2, GST-tagged recombinant human BCL-XL …; assay: as above
# Protocol: as §1, §2
Binder,EC50 (read off the curve) [1],EC50 (read off the curve) [2],EC50 (read off the curve) [3],EC50 (read off the curve) [4],binding result [1]
B1,~1 nM,,,,
B2,~2 nM,~5 nM,~2 nM,~5 nM,
B3,,,,,no binding (tested: 200 nM)
